Data taken from patent US20260234188A1, “CHEMOKINE-BINDING PEPTIDES” (Oxford University Innovation Limited, priority 2022, published 2026).

What was measured:
CXCL10 = target: T1, CXCL10 (Homo sapiens, UniProt P02778); assay: CXCL10-induced activated T-cell migration, transwell assay; format: cell-based; details: dose of 20 μM
T1 construct: purchased Peprotech
T1 sequence (P02778 22-98): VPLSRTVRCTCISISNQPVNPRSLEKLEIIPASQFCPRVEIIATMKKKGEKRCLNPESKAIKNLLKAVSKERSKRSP
Experimental: FIG. 2. […] BK1.2 is described in (Darlot, 2020). […] Chemokines used are indicated by the name, followed in parenthesis by the supplier code (P in supplier code indicates Peprotech). […] All experiments were performed at EC80 doses of indicated chemokine. Data are shown as box-whisker plots of three technical and three biological replicates. Statistically significant differences (compared to control, indicated by #), using Dunnett's test with correction for multiple comparisons, are indicated by asterisks: ****=P≤0.0001, ***=P≤0.001, **=P≤0.01, *=P≤0.05.
FIG. 11. […] Technical replicates are shown as individual data points. […] The response curve (solid blue line) and its 95% confidence interval (grey ribbon) were calculated using a 4-parameter log-logistic plot.
Briefly, cell migration assays use THP1 cells (human monocyte) and primary human buffy coat white cells (consisting of neutrophil granulocytes, monocytes, and lymphocytes), and activated T-cells. THP1 cells and primary monocytes respond to CCL2, CCL3, CCL5, CCL8 and CXCL4, granulocytes to CXCL1 and CXCL8, activated T-cells to CXCL9/10/11. Assays are performed in 96-well Boyden chambers, and migrated cells counted and characterized using and ATTUNE Flow Cytometer as described. […]

CC and CXC chemokines = assay: Chemokine-induced cell migration assays, pooled over chemokines (meta-analysis); format: cell-based, human; details: CC chemokines
Experimental: FIG. 16. Effect of HD2 alanine mutations on chemotaxis. […] All experiments were performed as three technical and three biological replicates, and individual data points are indicated, and coloured by the chemokine used. Statistically significant differences (compared to control, coloured blue), using Dunnett's test with correction for multiple comparisons, are indicated by asterisks: ****=P≤0.0001, ***=P≤0.001, **=P≤0.01, *=P≤0.05, n=45 observations per group (three technical and three biological replicates for each chemokine). FIG. 16B, Faceted plots of change in median normalised cell count between alanine mutant and wild-type HD2 peptide obtained in cell migration assays (Y-axis, Δmedian normalised cell count) versus alanine mutated residue (X-axis). Chemokines used for each experiment are indicated in the strip to the right of each plot. Statistically significant differences compared to parental HD2 are shown as red dots. […]
Briefly, cell migration assays use THP1 cells (human monocyte) and primary human buffy coat white cells (consisting of neutrophil granulocytes, monocytes, and lymphocytes), and activated T-cells. […] Assays are performed in 96-well Boyden chambers, and migrated cells counted and characterized using and ATTUNE Flow Cytometer as described. […]

B1: EVA4: parental class A tick evasin protein of HD2, expressed in HEK293F cells (protein)
chain: EVPQMTSSSAPDLEEEDDYTAYAPLTCYFTNSTLGLLAPPNCSVLCNSTTTWFNETSPNNASCLLTVDFLTQDAILQENQPYNCSVGHCDNGTCAGPPRHAQCW
B1 was tested, and the “inhibition of cell migration” value (CXCL10) was “did not inhibit” and the “inhibition of CC chemokines in dose-response experiments” value (CC and CXC chemokines) was “inhibited”.
